Laboratory results: patent US20190002548A1 (Chugai, published 2019)
Where two headings read alike, the source gives them in different places.

T1: Human mature myostatin (myostatin mature form; recombinant mature myostatin) (human (mature form 100% identical in …, UniProt O08689 268-376 (mouse entry), biotinylated in the Biacore assay (immobilized on a streptavidin chip); not labelled in the HEK Blue Assay)
T1 construct: Disulfide-bonded homodimer of the C-terminal growth factor domain, purified from latent myostatin expressed in FreeStyle293-F cells; also called GDF-8 mature form; C-terminal growth factor domain of human myostatin
T1 sequence: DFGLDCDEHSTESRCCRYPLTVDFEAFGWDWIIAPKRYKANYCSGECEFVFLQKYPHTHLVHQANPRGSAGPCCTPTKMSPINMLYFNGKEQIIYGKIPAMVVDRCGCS


Assays:
[1] = target: T1, Human mature myostatin (myostatin …); experiment: SPR, Biacore T200, 37 degrees C; biotinylated mature myostatin on streptavidin chip, 100 nM antibody bound at pH 7.4; dissociation phase at pH 5.8
Experimental: (§1) pH dependent binding of MST0226 variants to human mature myostatin were determined at 37 degrees C. using Biacore T200 instrument (GE Healthcare). Biotinylated mature myostatin was immobilized onto streptavidin sensor chip (GE Healthcare). In order to assess pH dependent binding of MST0226 variants to mature myostatin, 100 nM of antibodies were injected over mature myostatin sensor surface at pH 7.4 (20 mM ACES, 150 mM NaCl, 1.2 mM CaCl₂), 0.05% Tween 20, 0.005% NaN₃), followed by dissociation at pH 7.4 and an additional dissociation phase at pH5.8. This is to assess the pH-dependent dissociation of antibody/antigen complexes formed at pH 7.4. The dissociation rate (kd) at both pH 7.4 and pH 5.8 buffer was determined by processing and fitting data using Scrubber 2.0 (BioLogic Software) curve fitting software. The ratio of (kd at pH5.8)/(kd at pH 7.4) gives indication of pH dependent binding, e.g. ratio>1 indicates pH dependent binding. The sensor surface was regenerated each cycle with 10 mM Glycine-HCl, pH 1.7.

[2] = target: T1, Human mature myostatin (myostatin …); experiment: SPR (Biacore T200, 37 degrees C), biotinylated mature myostatin on streptavidin chip, 100 nM antibody, dissociation at pH 7.4 then pH 5.8
Experimental: as §1

[3] = target: T1, Human mature myostatin (myostatin …); experiment: SPR, Biacore T200, 37 degrees C; biotinylated mature myostatin on streptavidin chip; ratio of dissociation rates
Experimental: as §1

[4] = target: T1, Human mature myostatin (myostatin …); experiment: SPR, Biacore T200, 37 degrees C; biotinylated mature myostatin on streptavidin chip, 100 nM antibody bound at pH 7.4; dissociation phase at pH 7.4
Experimental: as §1

[5] = target: T1, Human mature myostatin (myostatin …); experiment: cell-based or functional assay
[6] = target: T1, Human mature myostatin (myostatin …); experiment: cell-based or functional assay; remark: listed apart in the source

Row | Binder | koff [1] [s⁻¹] | ratio of (kd at pH5.8)/(kd at pH 7.4) [2] | Ratio of (kd pH 5.8)/(kd pH 7.4) [3] | koff [4] [s⁻¹] | IC50 (read off the curve); HEK Blue Assay (SEAP reporter, OD620) [5] [ng/mL] | IC50 (read off the curve); HEK Blue Assay (SEAP reporter, OD620) [6] [ng/mL]
1 | MS_M22601H1020-SG1/M22608L0744-SK1 (antibody, human IgG1, kappa, V domains shown, pH-dependent variant of MSLO00-SG1; also called MSLO01-SG1; LO01-SG1) VH: EVQLVESGGGLVQPGGSLRLSCAVSGFTLSHYVKGWVRQAPGKGLEWIGIINISGSTYYASWAKGRFTISRDNSKNTVYLQMNSLRAEDTAVYFCARGHDNFGYSYHDFNLWGQGTLVTVSS VL: AVVMTQSPATLSLSPGERVTLSCQASQSIHHELSWYQQKPGQPPKLLIYLASTLASGVPSRFKGSGSGTDFTLTISSLQPEDAATYYCQTYDGISHYGVAFGQGTKVEIKR | 0.00228 | 17 | 17.4 | 0.000131 | – | –
2 | MS_M22601H-SG1/M22608L-SK1 (antibody, human IgG1, kappa, V domains shown, Humanized form of MST0226-G1m; the non pH-dependent antibody; also called MSLO00-SG1; LO00-SG1) VH: EVQLVESGGGLVQPGGSLRLSCAVSGFTLSNYVMGWVRQAPGKGLEWIGIINISGSTYYASWAKGRFTISRDNSKNTVYLQMNSLRAEDTAVYFCARGGDNFGYSYIDFNLWGQGTLVTVSS VL: AVVMTQSPATLSLSPGERVTLSCQASQSISNELSWYQQKPGQPPKLLIYLASTLASGVPSRFKGSGSGTDFTLTISSLQPEDAATYYCQTYDGISSYGVAFGQGTKVEIKR | 6.04e-05 | – | 0.8 | 7.82e-05 | – | –
3 | MS_M22601H1080-SG1/M22608L0846-SK1 (antibody, human IgG1, kappa, V domains shown, pH-dependent variant of MSLO00-SG1; also called MSLO04-SG1; LO04-SG1) VH: EVQLVESGGGLVQPGGSLRLSCAVSGFTLSHYVKGWVRQAPGKGLEWIGIINIEGSTYYASWAEGRFTISRDNSKNTVYLQMNSLRAEDTAVYFCARGHDNFGYSYHDFNLWGQGTLVTVSS VL: AVVMTQSPATLSLSPGERVTLSCQASQSIHHDLSWYQQKPGQPPKLLIYLASTLASGVPSRFKGSGSGTDFTLTISSLQPEDAATYYCQTYDGISHYGVAFGQGTKVEIKR | 0.00109 | 17 | 25.9 | 4.19e-05 | ~6 | –
4 | MS_M22601H1082-SG1/M22608L0837-SK1 (antibody, human IgG1, kappa, V domains shown, pH-dependent variant of MSLO00-SG1; also called MSLO03-SG1; LO03-SG1) VH: EVQLVESGGGLVQPGGSLRLSCAVSGFTLSHYVKGWVRQAPGKGLEWIGIINIEGETYYASWAKGRFTISRDNSKNTVYLQMNSLRAEDTAVYFCARGHDNFGYSYHDFNLWGQGTLVTVSS VL: AVVMTQSPATLSLSPGERVTLSCQASESIHHELSWYQQKPGQPPKLLIYLASTLASGVPSRFKGSGSGTDFTLTISSLQPEDAATYYCQTYDGISHYGVAFGQGTKVEIKR | 0.00321 | 17 | 26.8 | 0.00012 | – | –
5 | MS_M22601H1080-SG1/M22608L0837-SK1 (antibody, human IgG1, kappa, V domains shown, pH-dependent variant of MSLO00-SG1; also called MSLO02-SG1; LO02-SG1) VH: EVQLVESGGGLVQPGGSLRLSCAVSGFTLSHYVKGWVRQAPGKGLEWIGIINIEGSTYYASWAEGRFTISRDNSKNTVYLQMNSLRAEDTAVYFCARGHDNFGYSYHDFNLWGQGTLVTVSS VL: AVVMTQSPATLSLSPGERVTLSCQASESIHHELSWYQQKPGQPPKLLIYLASTLASGVPSRFKGSGSGTDFTLTISSLQPEDAATYYCQTYDGISHYGVAFGQGTKVEIKR | 0.00254 | 17 | 26.2 | 9.7e-05 | – | –

Other lines, results leading:

Row | koff [1] [s⁻¹] | ratio of (kd at pH5.8)/(kd at pH 7.4) [2] | Ratio of (kd pH 5.8)/(kd pH 7.4) [3] | koff [4] [s⁻¹] | IC50 (read off the curve); HEK Blue Assay (SEAP reporter, OD620) [5] [ng/mL] | IC50 (read off the curve); HEK Blue Assay (SEAP reporter, OD620) [6] [ng/mL] | Binder
6 | – | – | – | – | – | ~4 | MS_MST0095Hf-G1m/MST0095Lf-kOMTC (antibody, human IgG1, kappa, V domains shown) VH: QSVEESGGRLVTPGTPLTLTCTASGFSLSSYYMSWVRQAPGKGLEWIGIISSRGSTYYASWAKGRFTISKTSTTVDLKITSPTTEDTATYFCARGVVLWGPGTLVTVSS VL: ALVMTQTPASVSAAVGGTVTINCQASESIYSGLAWYQQKPGQPPKLLIYSASTLASGVPSRFRGSGSGTEYTLTINDLECADAATYYCQAYDSTNWTFGGGTEVVVKR
7 | – | – | – | – | – | ~7 | MS_MST0226Hc-G1m/MST0226La-kOMTC (antibody, human IgG1, kappa, V domains shown) VH: QSVEESGGRLVTPGGSLTLTCTVSGFSLSNYVMGWVRQAPGKGLEWIGIINISGSTYYASWAKGRFTISRTSTTVDLKMTSLTTEDTATYFCARGGDNFGYSYIDFNLWGPGTLVTVSS VL: AVVMTQTPASVSEPVGGTVTIKCQASQSISNELSWYRQKPGQPPKLLIYLASTLASGVPSRFKGSGSGTDFTLTISDLECADAATYYCQTYDGISSYGVAFGGGTKVVVER
